The Immune Epitope Database (IEDB)

How the values were obtained:
Test in all cases: IEDB peptide-MHC binding, purified MHC/competitive/radioactivity; filed as Kd, often an IC50 or EC50 that approximates it; ≥ and ≤ were set here for values at or beyond the usual limits of such assays
HLA-A*03:01 = target: HLA-A*03:01
HLA-A*11:01 = target: HLA-A*11:01
HLA-A*31:01 = target: HLA-A*31:01
HLA-A*33:01 = target: HLA-A*33:01
HLA-A*68:01 = target: HLA-A*68:01
HLA-A*02:03 = target: HLA-A*02:03
HLA-A*02:06 = target: HLA-A*02:06
[1] = source organism: Mammarenavirus lassaense
[2] = source organism: Vaccinia virus WR
[3] = source organism: SARS coronavirus Tor2
[4] = source organism: Dengue virus 1 Brazil/97-11/1997
[5] = source organism: Mammarenavirus juninense
[6] = source organism: Dengue virus 4 Philippines/H241/1956
[7] = source organism: Mammarenavirus guanaritoense
[8] = source organism: Lymphocytic choriomeningitis virus (strain Armstrong)
[9] = source organism: Dengue virus 3 Martinique/1243/1999
[10] = source organism: Lassa virus Josiah

| Sequence | Kd (HLA-A*03:01; [2]) | Kd (HLA-A*11:01; [2]) | Kd (HLA-A*31:01; [2]) | Kd (HLA-A*33:01; [2]) | Kd (HLA-A*68:01; [2]) | further results |
| --- | --- | --- | --- | --- | --- | --- |
| TCQGSEDIK |  |  |  |  |  | Kd (HLA-A*03:01; [1]): ≥ 78000 nM; Kd (HLA-A*11:01; [1]): 15100 nM; Kd (HLA-A*31:01; [1]): ≥ 61300 nM; Kd (HLA-A*33:01; [1]): ≥ 77.7 µM; Kd (HLA-A*68:01; [1]): ≥ 30000 nM |
| DIVNGKECCY | ≥ 70100 nM | ≥ 69800 nM | ≥ 70000 nM | ≥ 70 µM | ≥ 70200 nM |  |
| CLEWLRAKR | 13100 nM | ≥ 49200 nM | 76.2 nM | 0.438 µM | 294 nM |  |
| LLHCVTESYK | 14.7 nM | 128 nM | 207 nM | 3.27 µM | 23.6 nM |  |
| VFKDSFLRK | 322 nM | 216 nM | 154 nM | 1.88 µM | 776 nM |  |
| CLAVHECFVK |  |  |  |  |  | Kd (HLA-A*03:01; [3]): 3050 nM; Kd (HLA-A*11:01; [3]): 3460 nM; Kd (HLA-A*31:01; [3]): 7510 nM; Kd (HLA-A*33:01; [3]): ≥ 61.4 µM; Kd (HLA-A*68:01; [3]): 2270 nM |
| KLSSIKSKSR | 514 nM | 9910 nM | 104 nM | ≥ 27.7 µM | 18600 nM |  |
| ITDNGPMPY | 5020 nM | 7.31 nM | 1200 nM | 1.6 µM | 2470 nM |  |
| LLKNDVPLA |  |  |  |  |  | Kd (HLA-A*02:03; [4]): 8.25 nM |
| QTQTYNIGK | 143 nM | 7.03 nM | 316 nM | 2.62 µM | 8.83 nM |  |
| FIKYVNGWVK | 1.76 nM | 1.56 nM | 115 nM | 0.111 µM | 1.13 nM |  |
| TVFFTASLFL |  |  |  |  |  | Kd (HLA-A*03:01; [5]): 1330 nM; Kd (HLA-A*11:01; [5]): 482 nM; Kd (HLA-A*31:01; [5]): 7220 nM; Kd (HLA-A*33:01; [5]): ≥ 70 µM; Kd (HLA-A*68:01; [5]): 901 nM |
| VLDMCAALK |  |  |  |  |  | Kd (HLA-A*03:01; [3]): 17.6 nM; Kd (HLA-A*11:01; [3]): 44.9 nM; Kd (HLA-A*31:01; [3]): 2350 nM; Kd (HLA-A*33:01; [3]): 13.6 µM; Kd (HLA-A*68:01; [3]): 2520 nM |
| DSCNANGCEH |  |  |  |  |  | Kd (HLA-A*03:01; [1]): ≥ 70000 nM; Kd (HLA-A*11:01; [1]): ≥ 69700 nM; Kd (HLA-A*31:01; [1]): ≥ 70000 nM; Kd (HLA-A*33:01; [1]): ≥ 70 µM; Kd (HLA-A*68:01; [1]): ≥ 70100 nM |
| FMAYMIGQT |  |  |  |  |  | Kd (HLA-A*02:03; [6]): 6.07 nM |
| YLSSRAKLA |  |  |  |  |  | Kd (HLA-A*02:03; [6]): 36 nM |
| IVPEFAKQY | ≥ 28200 nM | 11800 nM | ≥ 21300 nM | ≥ 42.9 µM | 9120 nM |  |
| TNFESFTVK |  |  |  |  |  | Kd (HLA-A*03:01; [7]): 365 nM; Kd (HLA-A*11:01; [7]): 1440 nM; Kd (HLA-A*31:01; [7]): 270 nM; Kd (HLA-A*33:01; [7]): ≥ 77.7 µM; Kd (HLA-A*68:01; [7]): 24.3 nM |

| Sequence | Kd (HLA-A*03:01; [2]) | Kd (HLA-A*11:01; [2]) | Kd (HLA-A*31:01; [2]) | Kd (HLA-A*33:01; [2]) | Kd (HLA-A*68:01; [2]) | further results |
| --- | --- | --- | --- | --- | --- | --- |
| KVILSEISFH |  |  |  |  |  | Kd (HLA-A*03:01; [8]): 1370 nM; Kd (HLA-A*11:01; [8]): 812 nM; Kd (HLA-A*31:01; [8]): 2070 nM; Kd (HLA-A*33:01; [8]): 16.4 µM; Kd (HLA-A*68:01; [8]): 12700 nM |
| ETLNEYKQLY | 15100 nM | 12400 nM | ≥ 41300 nM | 0.541 µM | 331 nM |  |
| LLLGVGLAMA |  |  |  |  |  | Kd (HLA-A*02:03; [9]): 2.33 nM; Kd (HLA-A*02:06; [9]): 3.81 nM |
| ELMMTTIGIV |  |  |  |  |  | Kd (HLA-A*02:03; source organism: Dengue virus 2 Peru/IQT2913/1996): 2.02 nM |
| CLLAISAVY | 987 nM | 5040 nM | 368 nM | 8.53 µM | 160 nM |  |
| GALDTTSYR |  |  |  |  |  | Kd (HLA-A*03:01; [3]): 6600 nM; Kd (HLA-A*11:01; [3]): 26.3 nM; Kd (HLA-A*31:01; [3]): 86.5 nM; Kd (HLA-A*33:01; [3]): 1.4 µM; Kd (HLA-A*68:01; [3]): 68.4 nM |
| DLVKSSFVKK | 156 nM | 177 nM | 169 nM | 0.281 µM | 1130 nM |  |
| KFYGPFVDR |  |  |  |  |  | Kd (HLA-A*03:01; [3]): 7680 nM; Kd (HLA-A*11:01; [3]): 1420 nM; Kd (HLA-A*31:01; [3]): 0.454 nM; Kd (HLA-A*33:01; [3]): 2.04 µM; Kd (HLA-A*68:01; [3]): 3260 nM |
| MLQKEYMER |  |  |  |  |  | Kd (HLA-A*03:01; [10]): 11000 nM; Kd (HLA-A*11:01; [10]): 1360 nM; Kd (HLA-A*31:01; [10]): 100 nM; Kd (HLA-A*33:01; [10]): 0.193 µM; Kd (HLA-A*68:01; [10]): 33.3 nM |
| SLLKTHRMCK |  |  |  |  |  | Kd (HLA-A*03:01; [3]): 13.4 nM; Kd (HLA-A*11:01; [3]): 39 nM; Kd (HLA-A*31:01; [3]): 452 nM; Kd (HLA-A*33:01; [3]): 6.92 µM; Kd (HLA-A*68:01; [3]): ≥ 23300 nM |
| SICSTMTNR |  |  |  |  |  | Kd (HLA-A*03:01; [3]): 864 nM; Kd (HLA-A*11:01; [3]): 13 nM; Kd (HLA-A*31:01; [3]): 1.08 nM; Kd (HLA-A*33:01; [3]): 0.042 µM; Kd (HLA-A*68:01; [3]): 46.4 nM |
| VADLSARNK | 214 nM | 153 nM | 3030 nM | 11.7 µM | 1120 nM |  |
| NLFSKNILKY | 656 nM | 16300 nM | ≥ 70000 nM | ≥ 70 µM | 8770 nM |  |
| SVSGDLILEI |  |  |  |  |  | Kd (HLA-A*02:06; [4]): 89.1 nM |
| VLFVKKMLPK | 7.21 nM | 12 nM | 1730 nM | 13.5 µM | 2350 nM |  |
| IIVLFQRFLR | 941 nM | 44.3 nM | 1.33 nM | 0.0131 µM | 3.05 nM |  |
| LILCFTIKR |  |  |  |  |  | Kd (HLA-A*03:01; [3]): 1400 nM; Kd (HLA-A*11:01; [3]): 231 nM; Kd (HLA-A*31:01; [3]): 9010 nM; Kd (HLA-A*33:01; [3]): 7.03 µM; Kd (HLA-A*68:01; [3]): 1410 nM |
